This note sets out measurements from US10058586B2, “Use of human small leucine zipper protein in adipocyte differentiation procedure” (Korea University Research and Business Foundation, priority 2013, dated 2018).

Assay [1] deals with CREB element in the FABP4 enhancer region. The assay is described as follows: Electrophoretic mobility shift assay (EMSA) of His-sLZIP with FABP4 enhancer probes. In kind it is binding. On the procedure: T4 polynucleotide kinase (Promega, Madison, Wis.) was used to label 5′-terminal of oligonucleotides with [γ-^32P]ATP (Perkin Elmer, Waltham, Mass.). According to instructions of the manufacturer, unbound nucleotides were removed through tubes in a Bio-Gel P-6 spin column (Bio-Rad, Inc., Hercules, Calif.). His-sLZIP proteins were pre-incubated for 20 minutes at room temperature in a 5× binding buffer [10×GRAB, 20 mM of DTT, poly(deoxyinosinic-deoxycytidylic), Sigma, St. Louis] and radiolabeled probes. Reaction mixtures were loaded in wells of 4% nondenaturing polyacrylamide gels, and subjected to electrophoresis for 45 minutes at 180 V in a 0.5×TBE buffer. For competition experiments, a binding reaction was incubated for 30 minutes with 100-fold molar excess of unlabeled CREB binding oligonucleotides before radiolabeled oligonucleotides were added. For supershift analysis, anti-His antibodies were added to a reaction mixture on ice for additional 30 minutes.
A DNA binding ability of sLZIP with various elements in the FABP4 enhancer region was examined. For this purpose, recombinant His-sLZIP fusion proteins (3 μg) were incubated with γ-^32P-labeled oligonucleotide probes containing expected CREB binding elements (FIG. 7B). The γ-^32P-labeled oligonucleotide probes were incubated while an amount of purified His-sLZIPs was increased. For competition analysis, unlabeled CREB oligonucleotide probes of 100-fold excess were used and His antibodies were added to a reaction mixture on ice for additional […] (FIG. 7C). His-sLZIP proteins were subjected to EMSA using wild type and CREB mutant (TGATGTCA→TGGGGTCA) probes (FIG. 7D). 293T cells were temporarily transfected with PPARγ2 (0.5 μg), β-galactosidase (0.1 μg), FABP4 enhancer-luciferase reporter genes (0.2 μg) and sLZIP mutants at different contents (0.1 to 0.5 μg). After the transfection, the cells were stimulated with 10 nM of RZD (FIG. 7F). A luciferase activity was normalized to a β-galactosidase activity and represented as a relative activity (fold change). All experiments were repeated three times, and bars in the graph represent mean±standard deviation. ChIP analysis was performed using HA-sLZIP-specific antibodies and then PCR was performed. Input chromatins or immunoprecipitated chromatins were subjected to PCR and used as a control group for variables.

A further assay deals with HDAC3. The experiment in a line: HDAC3 ubiquitination (Ha-UB, GST pull-down) in 293T cells. In kind it is cell-based. The following applies: ligand treated (10 nM RZD, 24 hours). The protocol: (§1) Therefore, in order to understand a regulation mechanism of sLZIP in the PPARγ2 transcriptional activity by binding to the FABP4 promoter region, an effect of sLZIP on the interaction between PPARγ2 and HDAC3 was examined. For this purpose, 293T cells were transfected with GST-HDAC3, Myc-PPARγ2 and Flag-sLZIP, and were treated or not treated with 10 nM of RZD for 24 hours. Cell lysates were subjected to GST pull-down analysis using a glutathione 4B bead, and a protein complex was analyzed in SDS-PAGE, and then immunoblotted with anti-GST, anti-Myc and anti-Flag antibodies (FIG. 6A). GST-HDAC3, GST-PPARγ2, Myc-PPARγ2, Flag-sLZIP and Ha-UB were expressed in the 293T cells, and the cells were treated with 10 nM of RZD for 24 hours. Cell lysates were subjected to GST pull-down analysis (FIG. 6B). GST-PPARγ2 and Flag-sLZIP were expressed in the 293T cells and treated with 10 nM of RZD for 24 hours. Cell lysates were subjected to GST pull-down analysis, and a protein complex was analyzed in SDS-PAGE, and then immunoblotted with anti-PGC1α, anti-GST and anti-Flag antibodies (FIG. 6C).

The next assay has as its target T1, PPARγ2 (Homo sapiens, UniProt P37231).
T1 sequence (P37231 1-505): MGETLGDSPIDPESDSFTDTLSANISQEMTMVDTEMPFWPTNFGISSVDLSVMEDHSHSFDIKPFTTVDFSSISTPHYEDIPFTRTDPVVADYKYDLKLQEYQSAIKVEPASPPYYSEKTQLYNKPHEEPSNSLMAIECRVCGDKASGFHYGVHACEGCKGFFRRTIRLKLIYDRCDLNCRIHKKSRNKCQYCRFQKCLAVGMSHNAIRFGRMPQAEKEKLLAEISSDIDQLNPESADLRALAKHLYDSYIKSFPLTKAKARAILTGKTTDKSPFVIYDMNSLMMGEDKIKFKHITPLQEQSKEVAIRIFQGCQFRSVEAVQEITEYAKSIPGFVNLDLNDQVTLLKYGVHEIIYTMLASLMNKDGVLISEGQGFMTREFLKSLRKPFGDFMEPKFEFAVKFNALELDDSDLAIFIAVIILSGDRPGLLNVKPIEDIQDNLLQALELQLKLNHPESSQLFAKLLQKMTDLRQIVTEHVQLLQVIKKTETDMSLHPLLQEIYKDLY
The assay is described as follows: Fluorescence microscopy, subcellular localization of sLZIP and PPARγ2 in C3H10T1/2 cells. Conditions: GFP-PPARγ2 and Flag-sLZIP. It is filed as cell-based. The protocol:
C3H10T1/2 cells were transiently ci-transfected with Flag-sLZIP, GFP-PPARγ2 or GFP-sLZIP, and HDAC3 was grown on cover slip. After 24 hours, the cells were fixed with 4% paraformaldehyde for 10 minutes and permeabilized 0.2% Triton-X 100 for 5 minutes. The cells were incubated with 1% BSA for one hour, and then incubated with anti-Flag and anti-HDAC3 antibodies overnight at 4° C. The cells were washed with PBS, and then were incubated with Texas Red-labeled antibodies for 2 hours. A cover slide was washed with PBS, and mounted on and examined using a LSM 510 META confocal microscopy (Carl Zeiss, Jena, Germany).
In order to examine whether the transcriptional activity of PPARγ2 is regulated by interaction with sLZIP, interaction between sLZIP and PPARγ2 was examined. For this purpose, 293T cells were transfected with GST-sLZIP and Myc-PPARγ2. Cell lysates were obtained and GST pull-down analysis was performed using a glutathione 4B bead. A protein complex was analyzed in SDS-PAGE and then immunoblotted with specific antibodies (FIG. 2A). […] Proteins bound to the bead were analyzed in SDS-PAGE, and then immunoblotted with anti-PPARγ2 and anti-His antibodies (FIG. 2C). GFP-PPARγ2 and Flag-sLZIP constructs were expressed in C3H10T1/2 cells, and analyzed using mouse anti-Flag and Texas Red-labeled anti-mouse antibodies under a fluorescence microscope. […]

Another assay addresses T2, PPARγ2 and HDAC3 (Homo sapiens, UniProt P37231).
T2 construct: expressed in transfected cells; host or cells: 293T cells
T2 sequence (P37231 1-505): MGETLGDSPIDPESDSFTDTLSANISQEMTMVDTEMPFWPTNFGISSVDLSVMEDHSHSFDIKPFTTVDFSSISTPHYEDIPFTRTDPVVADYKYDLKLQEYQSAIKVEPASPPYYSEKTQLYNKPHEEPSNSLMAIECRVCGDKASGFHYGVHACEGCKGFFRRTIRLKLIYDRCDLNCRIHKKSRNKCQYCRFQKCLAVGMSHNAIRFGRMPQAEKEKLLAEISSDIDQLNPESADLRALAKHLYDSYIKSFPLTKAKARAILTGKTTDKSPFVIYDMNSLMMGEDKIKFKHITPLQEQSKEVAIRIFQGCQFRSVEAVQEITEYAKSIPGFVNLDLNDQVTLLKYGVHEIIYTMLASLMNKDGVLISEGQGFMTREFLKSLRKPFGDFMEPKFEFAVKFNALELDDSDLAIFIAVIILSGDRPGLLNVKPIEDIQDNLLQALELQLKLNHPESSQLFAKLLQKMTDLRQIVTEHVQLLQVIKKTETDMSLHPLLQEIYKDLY
The assay is described as follows: GST pull-down of GST-HDAC3, Myc-PPARγ2 and Flag-sLZIP in 293T cells. Conditions: in the presence of ligand (10 nM RZD). It is filed as binding. On the procedure:
as §1

B1: sLZIP: human small leucine-zipper protein, isoform of LZIP, 354 amino acids, no transmembrane domain; GenBank FJ263669, SEQ ID NO: 1 (protein, listed as Homo sapiens)
chain: MELELDAGDQDLLAFLLEESGDLGTAPDEAVRAPLDWALPLSEVPSDWEVDDLLCSLLSPPASLNILSSSNPCLVHHDHTYSLPRETVSMDLESESCRKEGTQMTPQHMEELAEQEIARLVLTDEEKSLLEKEGLILPETLPLTKTEEQILKRVRRKIRNKRSAQESRRKKKVYVGGLESRVLKYTAQNMELQNKVQLLEEQNLSLLDQLRKLQAMVIEISNKTSSSSMYSSDTRGSLPAEHGVLSRQLRALPSEDPYQLELPALQSEVPKDSTHQWLDGSDCVLQAPGNTSCLLHYMPQAPSAEPPLEWPFPDLFSEPLCRGPILPLQANLTRKGGWLPTGSPSVILQDRYSG
Turning to B1, the “DNA binding to CREB element (EMSA, cold competition)” value in assay [1] (100-fold excess unlabeled CREB probes) is “not bound to the CREB element when there were competitors”. The “DNA binding to CREB mutant probes (EMSA)” value in assay [1] (CREB mutant TGATGTCA→TGGGGTCA) is “not bound to CREB mutant probes”. Moreover, the “supershift (EMSA)” value in assay [1] (His antibodies added) is on record as “supershifted”. Moreover, in assay [1] (His-sLZIP 3 μg, labeled probes), the “DNA binding to elements in the FABP4 enhancer region (EMSA)” value is recorded as “directly bound to a CREB region”. In addition, the “DNA binding ability with CREB element (EMSA)” value in assay [1] (increasing amount of purified His-sLZIP) is “increased in a concentration-dependent manner”. The HDAC3 ubiquitination entry in the assay on HDAC3 is “inhibited HDAC3 ubiquitination”. Further, the “subcellular localization of sLZIP and PPARγ2” value with PPARγ2 was “localized in the nucleus together with PPARγ2”. Moreover, the “effect on interaction between PPARγ2 and HDAC3 (GST pull-down)” value with PPARγ2 and HDAC3 is “enhanced interaction between PPARγ2 and HDAC3”.
